B1: NET1 (parent)
chain: IKRTIRVLDVNNQSFREQEEPSNK
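Note: lentivirally expressed fusions sorted by FACS into six bins by GFP to DsRed ratio, PSI derived from sequencing read proportions per bin multiplied by bin number.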

Variants of: B1
Test: protein stability index of a GFP-peptide fusion (GPS, HEK-293T) (PSI 1-6); higher = more stable
Settings: c terminus: a fixed tail appended
For IKRTIRVLDVNNQSFREQEEPSNA, the protein stability index was 3.46. Work on IKRTIRVLDVNNQSFREQEEPSNF yielded a protein stability index of 2.98. IKRTIRVLDVNNQSFREQEEPSNC gave a protein stability index of 3.4. IKRTIRVLDVNNQSFREQEEPSNE showed a protein stability index of 4.37. IKRTIRVLDVNNQSFREQEEPSND gave a protein stability index of 3.79. IKRTIRVLDVNNQSFREQREPSNK gave a protein stability index of 2.6. IKRTIRVLDVNNQSFREQYEPSNK showed a protein stability index of 2.43. IKRTIRVLDVNNQSFREQLEPSNK gave a protein stability index of 2.27. IKRTIRVLDVNNQSFREQNEPSNK gave a protein stability index of 2.89. With IKRTIRVLDVNNQSFREQPEPSNK the protein stability index was 3.44. In the case of IKRTIRVLDVNNQSFREQHEPSNK, the protein stability index is reported as 2.9. Work on IKRTIRVLDVNNQSFREQIEPSNK yielded a protein stability index of 2.38. Work on IKRTIRVLDVNNQSFREQKEPSNK yielded a protein stability index of 3.88. IKRTIRVLDVNNQSFREQVEPSNK showed a protein stability index of 2.68. For IKRTIRVLDVNNQSFREQTEPSNK, the protein stability index was 3.34. Variant IKRTIRVLDVNNQSFREQWEPSNK has a protein stability index of 1.75. IKRTIRVLDVNNQSFREQMEPSNK gave a protein stability index of 3.15. For IKRTIRVLDVNNQSFREQGEPSNK, the protein stability index was 4.21. Variant IKRTIRVLDVNNQSFREQSEPSNK has a protein stability index of 2.44. IKRTIRVLDVNNQSFREQQEPSNK showed a protein stability index of 2.76. With IKRTIRVLDVNNQSFREQEENSNK the protein stability index was 3.92. For IKRTIRVLDVNNQSFREQEEGSNK, the protein stability index was 2.72. IKRTIRVLDVNNQSFREQEECSNK gave a protein stability index of 3.54. IKRTIRVLDVNNQSFREQEEWSNK showed a protein stability index of 3.12. With IKRTIRVLDVNNQSFREQEEASNK the protein stability index was 3.29. IKRTIRVLDVNNQSFREQEEESNK gave a protein stability index of 3.36. For IKRTIRVLDVNNQSFREQEEFSNK, the protein stability index was 2.35. For IKRTIRVLDVNNQSFREQEERSNK, the protein stability index was 3.68. IKRTIRVLDVNNQSFREQEESSNK gave a protein stability index of 4.27. In the case of IKRTIRVLDVNNQSFREQEELSNK, the protein stability index is reported as 3.93. For IKRTIRVLDVNNQSFREQEETSNK, the protein stability index was 3.57. In the case of IKRTIRVLDVNNQSFREQEEKSNK, the protein stability index is reported as 4.15. For IKRTIRVLDVNNQSFREQEEYSNK, the protein stability index was 3.78. In the case of IKRTIRVLDVNNQSFREQEEISNK, the protein stability index is reported as 2.57. With IKRTIRVLDVNNQSFREQEEHSNK the protein stability index was 3.75. With IKRTIRVLDVNNQSFREQEEDSNK the protein stability index was 3.97. Variant IKRTIRVLDVNNQSFREQEEVSNK has a protein stability index of 3.22. IKRTIRVLDVNNQSFREQEEQSNK showed a protein stability index of 3.34. IKRTIRVLDVNNQSFREQEEMSNK showed a protein stability index of 3.11. With IKRTIRVLDVNNQSFREQEEPSPK the protein stability index was 2.87. IKRTIRVLDVNNQSFREQEEPSMK gave a protein stability index of 3.41. IKRTIRVLDVNNQSFREQEEPSEK gave a protein stability index of 3.96. Variant IKRTIRVLDVNNQSFREQEEPSHK has a protein stability index of 2.28. IKRTIRVLDVNNQSFREQEEPSGK showed a protein stability index of 3.56. Work on IKRTIRVLDVNNQSFREQEEPSQK yielded a protein stability index of 3.65. IKRTIRVLDVNNQSFREQEEPSKK gave a protein stability index of 3.56. With IKRTIRVLDVNNQSFREQEEPSSK the protein stability index was 3.97. IKRTIRVLDVNNQSFREQEEPSVK gave a protein stability index of 4.04. IKRTIRVLDVNNQSFREQEEPSTK showed a protein stability index of 3.73. Variant IKRTIRVLDVNNQSFREQEEPSCK has a protein stability index of 3.8. For IKRTIRVLDVNNQSFREQEEPSFK, the protein stability index was 2.96. Work on IKRTIRVLDVNNQSFREQEEPSDK yielded a protein stability index of 4.51. IKRTIRVLDVNNQSFREQEEPSYK showed a protein stability index of 2.07. For IKRTIRVLDVNNQSFREQEEPSIK, the protein stability index was 3.94. With IKRTIRVLDVNNQSFREQEEPSLK the protein stability index was 3.16. In the case of IKRTIRVLDVNNQSFREQEEPSAK, the protein stability index is reported as 2.99. For IKRTIRVLDVNNQSFREQEEPYNK, the protein stability index was 3.34. With IKRTIRVLDVNNQSFREQEEPGNK the protein stability index was 2.49. IKRTIRVLDVNNQSFREQEEPFNK showed a protein stability index of 2.55. Variant IKRTIRVLDVNNQSFREQEEPKNK has a protein stability index of 3.87. In the case of IKRTIRVLDVNNQSFREQEEPLNK, the protein stability index is reported as 2.64. IKRTIRVLDVNNQSFREQEEPPNK showed a protein stability index of 3.64. For IKRTIRVLDVNNQSFREQEEPWNK, the protein stability index was 1.92. IKRTIRVLDVNNQSFREQEEPENK showed a protein stability index of 3.42. With IKRTIRVLDVNNQSFREQEEPHNK the protein stability index was 3.83. For IKRTIRVLDVNNQSFREQEEPQNK, the protein stability index was 2.8. For IKRTIRVLDVNNQSFREQEEPINK, the protein stability index was 3.28. Variant IKRTIRVLDVNNQSFREQEEPTNK has a protein stability index of 3.14. IKRTIRVLDVNNQSFREQEEPDNK showed a protein stability index of 3.99. In the case of IKRTIRVLDVNNQSFREQEEPCNK, the protein stability index is reported as 3.59. IKRTIRVLDVNNQSFREQEEPANK showed a protein stability index of 3.04. With IKRTIRVLDVNNQSFREQEEPRNK the protein stability index was 3.85. For IKRTIRVLDVNNQSFREQEEPVNK, the protein stability index was 3.23. IKRTIRVLDVNNQSFREQEEPMNK showed a protein stability index of 4.02. In the case of IKRTIRVLDVNNQSFREQEEPNNK, the protein stability index is reported as 3.97. In the case of IKRTIRVLDVNNQSFREQEYPSNK, the protein stability index is reported as 2.75. Work on IKRTIRVLDVNNQSFREQEVPSNK yielded a protein stability index of 3.04. In the case of IKRTIRVLDVNNQSFREQERPSNK, the protein stability index is reported as 2.93. Work on IKRTIRVLDVNNQSFREQEAPSNK yielded a protein stability index of 3.69. With IKRTIRVLDVNNQSFREQEQPSNK the protein stability index was 2.8. Work on IKRTIRVLDVNNQSFREQEHPSNK yielded a protein stability index of 3.05. Variant IKRTIRVLDVNNQSFREQEFPSNK has a protein stability index of 2.97. IKRTIRVLDVNNQSFREQESPSNK gave a protein stability index of 3.57. With IKRTIRVLDVNNQSFREQEIPSNK the protein stability index was 3.37. IKRTIRVLDVNNQSFREQEGPSNK showed a protein stability index of 3.19. Variant IKRTIRVLDVNNQSFREQEKPSNK has a protein stability index of 2.9. Variant IKRTIRVLDVNNQSFREQEPPSNK has a protein stability index of 3.33. Variant IKRTIRVLDVNNQSFREQETPSNK has a protein stability index of 3.41. With IKRTIRVLDVNNQSFREQECPSNK the protein stability index was 3.27. IKRTIRVLDVNNQSFREQELPSNK gave a protein stability index of 3.16. Variant IKRTIRVLDVNNQSFREQEWPSNK has a protein stability index of 2.31. IKRTIRVLDVNNQSFREQEDPSNK showed a protein stability index of 3.23. Variant IKRTIRVLDVNNQSFREQEMPSNK has a protein stability index of 3.16. In the case of IKRTIRVLDVNNQSFREQENPSNK, the protein stability index is reported as 3.52.

Reference: the supplement of paper PMC10567573
